Assay results as given in US20230090014A1 (NANJING SANHOME PHARMACEUTICAL, published 2023).
Residue numbers refer to the chain shown, from its start. Like-named read-outs stand apart in the source and are kept apart here. Values belong to the binder of their own block, whether it stands above or below them.

Experiments:
[1] = target: T1, CD47 on the surface of CHO-K1-E5 cells (human, UniProt Q08722 19-323); test: FACS blocking assay on CHO-K1-E5 cells; blocked ligand SIRPα-Biotin, PE streptavidin
T1 construct: Full length CD47 expressed from pTargeT-CD47 in CHO-K1 cells; also called CD47 on cell surface; CHO-K1-hCD47

CD47(19-136)-hFc = target: T2, CD47(19-136)-hFc (human, biotin-labelled in the Octet assay of Example 8 (sites not given)); test: BLI (Fortebio Octet RED96), biotinylated CD47-hFc on SA sensor, antibody in solution
T2 construct: tied by name; also called CD47-hFc; CD47-hFc-Biotin

Human CD47-His protein [2] = target: T3, Human CD47-His protein (human, UniProt Q08722 19-136); test: ELISA on coated human CD47-His, anti-human IgG HRP, OD450
[3] = target: T1, CD47 on the surface of CHO-K1-E5 cells; test: cell based ELISA on fixed CHO-K1-E5 cells, anti-human IgG HRP, OD450
Cynomolgus CD47-His = target: T4, Cynomolgus CD47-His (cynomolgus, UniProt A0A2K5X523 19-139); test: ELISA on coated cynomolgus CD47-His, anti-human IgG HRP, OD450
T4 construct: Bought protein; also called monkey CD47

Human CD47-His protein [4] = target: T3, Human CD47-His protein; test: ELISA of hybridoma supernatant, binding activity to CD47
[5] = target: T1, CD47 on the surface of CHO-K1-E5 cells; test: FACS blocking assay on CHO-K1-hCD47 cells; blocked ligand SIRPα-biotin, PE-SA
Human CD47-His protein [6] = target: T3, Human CD47-His protein; test: competition ELISA on coated CD47-His; blocked ligand SIRPα-biotin (2 µg/mL), SA-HRP, OD450
[7] = target: T1, CD47 on the surface of CHO-K1-E5 cells; test: FACS on CHO-K1-hCD47 cells, PE anti-human IgG
[8] = target: T5, hCD47 on the surface of Raji-hPD-L1 cells (human, UniProt Q08722 19-323); test: FACS on Raji-hPD-L1 cells (carry both hPD-L1 and hCD47), PE anti-human IgG Fc
T5 construct: whole, on cells

[9] = target: T5, hCD47 on the surface of Raji-hPD-L1 …; test: as above; remark: listed apart in the source
Human CD47-His protein [10] = target: T3, Human CD47-His protein; test: ELISA on coated human CD47-His, HRP anti-human IgG, OD450
[11] = target: T6, hPD-L1 on the surface of CHO-K1-hPD-L1 and Raji-hPD-L1 cells (human, UniProt Q9NZQ7 19-238); test: FACS on CHO-K1-hPD-L1 cells, PE anti-human IgG
T6 construct: also called CHO-K1-PD-L1; human PD-L1 on cell surface

[12] = target: T6, hPD-L1 on the surface of CHO-K1-hPD-L1 …; test: FACS blocking assay on CHO-K1-hPD-L1 cells; blocked ligand PD-1-mFc (1 µg/mL), PE anti-mouse IgG
[13] = target: T1, CD47 on the surface of CHO-K1-E5 cells; test: competition FACS on CHO-K1-hCD47 cells, SIRPα-biotin as competitor
[14] = target: T1, CD47 on the surface of CHO-K1-E5 cells; test: FACS on CHO-K1-hCD47 cells
PD-L1-mFc = PD-L1-mFc (UniProt Q9NZQ7 19-238, limits assumed); test: competition ELISA on coated CD80-hFc; antibody mixed with PD-L1-mFc, bound PD-L1-mFc detected with anti-mouse IgG HRP, OD450; design: unit not given here
Human CD47-His protein [15] = target: T3, Human CD47-His protein; test: competition ELISA: CD47-His coated, SIRPα-biotin as competitor
Human PD-L1-His protein = Human PD-L1-His protein (human, UniProt Q9NZQ7 19-238, limits assumed); test: ELISA on coated human PD-L1-His, HRP anti-human IgG, OD450
Human CD47-His protein [16] = target: T3, Human CD47-His protein; test: ELISA, human CD47-His coated
Human PD-L1-hFC protein = Human PD-L1-hFC protein (human, UniProt Q9NZQ7 19-238, limits assumed); test: competition ELISA on coated PD-L1-hFc; blocked ligand PD-1-mFc (1 µg/mL), anti-mouse IgG HRP, OD450
Sequence of Human PD-L1-hFC protein (Q9NZQ7 19-238 limits assumed): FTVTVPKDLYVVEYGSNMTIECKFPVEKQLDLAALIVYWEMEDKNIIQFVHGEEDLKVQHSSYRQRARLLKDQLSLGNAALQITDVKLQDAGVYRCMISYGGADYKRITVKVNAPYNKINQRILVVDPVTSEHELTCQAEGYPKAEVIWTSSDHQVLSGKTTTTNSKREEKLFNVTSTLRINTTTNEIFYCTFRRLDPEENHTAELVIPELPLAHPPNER

T6 sequence (Q9NZQ7 19-238): as the sequence (Q9NZQ7 19-238 limits assumed) above
T2 sequence (chain, as listed by the source limits assumed): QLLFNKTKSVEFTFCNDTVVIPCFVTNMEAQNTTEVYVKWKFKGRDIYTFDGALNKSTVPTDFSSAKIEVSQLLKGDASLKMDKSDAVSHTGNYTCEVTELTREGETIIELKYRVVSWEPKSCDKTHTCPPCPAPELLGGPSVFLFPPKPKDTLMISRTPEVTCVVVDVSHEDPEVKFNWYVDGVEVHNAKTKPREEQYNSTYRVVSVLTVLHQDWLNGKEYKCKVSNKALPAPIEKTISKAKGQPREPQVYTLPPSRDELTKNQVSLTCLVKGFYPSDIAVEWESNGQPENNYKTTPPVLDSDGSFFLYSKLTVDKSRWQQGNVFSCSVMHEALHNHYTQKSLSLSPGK
Sequence of Human PD-L1-His protein (Q9NZQ7 19-238 limits assumed): as the sequence (Q9NZQ7 19-238 limits assumed) above
Sequence of PD-L1-mFc (Q9NZQ7 19-238 limits assumed): as above

B1: Hu58A-14-PE (antibody, IgG4, V domains shown)
VH: EVQLLESGGGLVQPGGSLRLSCAASGFIFSRFGMAWVRQTPDKRLEWVATISSGGSYTYYPDSVKGRLTISRDNAKTTLYLQMRSLKSEDTAMYYCARQGLLDYLYALDYWGQGTAVTVSS
VL: DIQMTQSPSSVSASIGDRVTITCKASQDINSFLAWFQQKPGKSPRPLIYRAYRLVDGVPSRFSGVGSGQDYSLTISSLDYEDLGIYYCQQYVEFPPTFGAGTMLELK
notes: also called humanized anti-CD47 antibody Hu58A-14-PE
IC50 (read off the curve) [1]: ~5 nM | Kd (CD47(19-136)-hFc): 0.0946 nM | koff (CD47(19-136)-hFc): 0.000168 s⁻¹ | kon (CD47(19-136)-hFc): 1.78e+06 M⁻¹ s⁻¹ | EC50 (read off the curve) (Human CD47-His protein [2]): ~0.08 nM | EC50 (read off the curve) [3]: ~0.1 nM | EC50 (read off the curve) (Cynomolgus CD47-His): ~0.1 nM

B3: Hu34-39-PE (antibody, IgG4, V domains shown)
VH: QVQLQESGPGLVKPSQTLSLTCKASGYTFTNYWITWVKQRPGQGLEWIGDITPGRGETNYNQKFKGRVTLTVDISASTAYMELSSLRSEDTAVYYCSRWGLRRGDYWGQGTSVTVSS
VL: EIVLTQSPGTLSLSPGERATLSCRASSSVSSSYLNWYQQKSGASPKLWIYSTSNLASGVPGRFSGSGSGTSYSLTISSVEAEDAATYYCQQYSGYPLTFGAGTKLEVK
notes: also called humanized anti-CD47 antibody Hu34-39-PE
IC50 (read off the curve) [5]: ~2 nM | IC50 (read off the curve) [1]: ~1 nM | Kd (CD47(19-136)-hFc): 0.113 nM | koff (CD47(19-136)-hFc): 0.000758 s⁻¹ | kon (CD47(19-136)-hFc): 6.69e+06 M⁻¹ s⁻¹ | EC50 (read off the curve) (Human CD47-His protein [2]): ~0.08 nM | IC50 (read off the curve) (Human CD47-His protein [6]): ~100 nM | EC50 (read off the curve) [7]: ~1 nM | EC50 (read off the curve) [8]: ~0.2 nM | EC50 (read off the curve) [9]: ~0.1 nM | EC50 (read off the curve) [3]: ~0.1 nM | EC50 (read off the curve) (Human CD47-His protein [10]): ~60 nM | EC50 (read off the curve) (Cynomolgus CD47-His): ~0.1 nM

B5: Hu26T-31-PE (antibody, IgG4, V domains shown)
VH: QVQLVQSGAEVKKPGASVKVSCKASGYTFTDYYMNWVRQAPGQGLEWIGRIYPGSGLTYYNAKFKGRATVTADKSTSTVYMELSSLRSEDTAVYYCARTSYGSSFPHVWGQGTTVTVSS
VL: DIQMTQSPSSLSASVGDRVTITCKSSQSLLNVNDQKNYLAWYQQKPGKAPKLLIYFASTRESGVPSRFSGSGSGTDFTLTISSLQPEDFATYYCQQHYSTPLTFGQGTKLEIK
notes: also called humanized anti-CD47 antibody Hu26T-31-PE
IC50 (read off the curve) [1]: ~1 nM | Kd (CD47(19-136)-hFc): 0.0587 nM | koff (CD47(19-136)-hFc): 6.13e-05 s⁻¹ | kon (CD47(19-136)-hFc): 1.04e+06 M⁻¹ s⁻¹ | EC50 (read off the curve) (Human CD47-His protein [2]): ~0.1 nM | EC50 (read off the curve) [3]: ~0.1 nM | EC50 (read off the curve) (Cynomolgus CD47-His): ~0.1 nM

B6: ScFab (HuPL7-21Ks/Hu34-39Hs) (bispecific antibody)
chain 1: not shown
chain 2: EIVLTQSPGTLSLSPGERATLSCRASSSVSSSYLNWYQQKSGASPKLWIYSTSNLASGVPGRFSGSGSGTSYSLTISSVEAEDAATYYCQQYSGYPLTFGAGTKLEVKRTVAAPSVFIFPPSDEQLKSGTASVVCLLNNFYPREAKVQWKVDNALQSGNSQESVTEQDSKDSTYSLSSTLTLSKADYEKHKVYACEVTHQGLSSPVTKSFNRGECGGGGSGGGGSGGGGSGGGGSGGGGSGGGGSQVQLQESGPGLVKPSQTLSLTCKASGYTFTNYWITWVKQRPGQGLEWIGDITPGRGETNYNQKFKGRVTLTVDISASTAYMELSSLRSEDTAVYYCSRWGLRRGDYWGQGTSVTVSSASTKGPSVFPLAPCSRSTSESTAALGCLVKDYFPEPVTVSWNSGALTSGVHTFPAVLQSSGLYSLSSVVTVPSSSLGTKTYTCNVDHKPSNTKVDKRVESKYGPPCPPCPAPEFEGGPSVFLFPPKPKDTLMISRTPEVTCVVVDVSQEDPEVQFNWYVDGVEVHNAKTKPREEQFNSTYRVVSVLTVLHQDWLNGKEYKCKVSNKGLPSSIEKTISKAKGQPREPQVCTLPPSQEEMTKNQVSLSCAVKGFYPSDIAVEWESNGQPENNYKTTPPVLDSDGSFFLVSRLTVDKSRWQEGNVFSCSVMHEALHNHYTQKSLSLSLGK
notes: also called BiAb; Bi Ab
EC50 (read off the curve) [11]: ~2 nM | IC50 (read off the curve) [5]: ~8 nM | IC50 (read off the curve) [12]: ~3 nM | fold increase of IC50 against Hu34-39-PE [13]: 3 times | EC50 (read off the curve) [7]: ~10 nM | fold decrease of Emax against Hu34-39-PE [14]: ~2 times | fold increase of EC50 against Hu34-39-PE [14]: ~4 times | IC50 (read off the curve) (PD-L1-mFc): ~10 | fold increase of IC50 against Hu34-39-PE (Human CD47-His protein [15]): ~40 times | EC50 (read off the curve) (Human PD-L1-His protein): ~200 nM | fold increase of binding EC50 against Hu34-39-PE (Human CD47-His protein [16]): 40 fold | EC50 (read off the curve) (Human CD47-His protein [10]): ~2000 nM | IC50 (read off the curve) (Human PD-L1-hFC protein): ~1000 nM

B8: AB6.12-IgG4P (antibody, V domains shown)
VH: QMQLVQSGAEVKKTGSSVKVSCKASGFNIKDYYLHWVRQAPGQALEWMGWIDPDQGDTEYAQKFQDRVTITRDRSMSTAYMELSSLRSEDTAMYYCNAAYGSSSYPMDYWGQGTTVTVSS
VL: NIQMTQSPSAMSASVGDRVTITCKASQDIHRYLSWFQQKPGKVPKHLIYRANRLVSGVPSRFSGSGSGTEFTLTISSLQPEDFATYYCLQYDEFPYTFGGGTKVEIKR
notes: Anti-CD47 control antibody from WO2013/119714; also called AB06.12-4P; AB06.12-P
IC50 (read off the curve) [1]: ~1 nM | Kd (CD47(19-136)-hFc): 0.101 nM | koff (CD47(19-136)-hFc): 0.000485 s⁻¹ | kon (CD47(19-136)-hFc): 4.8e+06 M⁻¹ s⁻¹ | EC50 (read off the curve) (Human CD47-His protein [2]): ~0.08 nM | EC50 (read off the curve) [3]: ~0.1 nM | EC50 (read off the curve) (Cynomolgus CD47-His): ~0.1 nM

The next lines start with the values.

binding result (Human CD47-His protein [4]): binds
B2: SHC025-58 (antibody, IgG2b, V domains shown)
VH: B1 VH with L5V, G10D, Q13E, R19K
VL: B1 VL with Q3K, T5I, V11M, S12Y, S14G, I15L, D17E, I21F, T22N, A34C
notes: tested as culture supernatant

binding result (Human CD47-His protein [4]): binds
B4: SHC025-34 (antibody, IgG2c, V domains shown)
VH: QVQLQQPGAELVKPGASVKMSCKASGYTFTNYWITWVKQRPGQGLEWIGDITPGRGETNYNEKFKSKATLTVDTSSSTAYMQLTSLTSEDSAVYYCSRWGLRRGDYWGQGTSVTVSS
VL: B3 VL with I2N, G9A, T10I, L11M, L13A, R18K, A19V, L21M, S22T
notes: tested as culture supernatant

EC50 (read off the curve) [11]: ~2 nM | IC50 (read off the curve) [5]: ~5 nM | IC50 (read off the curve) [12]: ~5 nM | fold increase of IC50 against Hu34-39-PE [13]: 3 times | EC50 (read off the curve) [7]: ~10 nM | fold decrease of Emax against Hu34-39-PE [14]: ~2 times | fold increase of EC50 against Hu34-39-PE [14]: ~4 times | fold increase of IC50 against Hu34-39-PE (Human CD47-His protein [15]): ~40 times | fold increase of binding EC50 against Hu34-39-PE (Human CD47-His protein [16]): ~40 times | EC50 (read off the curve) (Human CD47-His protein [10]): ~2000 nM
B7: ScFab (HuPL16-42Ks/Hu34-39Hs) (bispecific antibody)
chain 1: not shown
chain 2: B6 chain 2

binding result (Human CD47-His protein [4]): binds
B9: SHC025-26 (antibody, IgG1, V domains shown)
VH: QVQLKQSGAELVRPGASVKLSCKASGYIFTDYYMNWVKQRPGQGLEWIARIYPGSGLTYYNAKFKGKATVTAEKSSSTAYMQLSSLTSEDSAVYFCARCSYGSSFPHVWGTGTTVTVSS
VL: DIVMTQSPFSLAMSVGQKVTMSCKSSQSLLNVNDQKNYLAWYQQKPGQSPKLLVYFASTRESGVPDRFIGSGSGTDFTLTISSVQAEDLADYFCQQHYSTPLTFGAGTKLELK
notes: tested as culture supernatant
